B1: L1D12 (antibody, human IgG1, V domains shown)
VH: QVQLVQSGGGLVQPGGSLRLSCAASGFTVSSNYMSWVRQAPGKGLEWVSVIYSGGSTYYADSVKGRFTISRDNSKNTLYLQMNSLRAEDTAVYYCARGFHDILTGYGMDVWGQGTTVTVSS
VL: SSELTQDPAVSVALGQTVRITCQGDSLRNYYAGWYQQKPGQAPVLVIYGKNNRPSGIPDRFSGSSSGNTASLTITGTQAEDEADYYCSSRDNSGTHLVEFGGGTKLTVL
notes: also called LID12
B2: L9G7 (antibody, human IgG1, V domains shown)
VH: QIQLVQSGAEVKKPGASVKVSCKASGYTFTSYGISWVRQAPGQGLEWMGWISAYNGNTNYAQKLQGRVTMTTDTSTSTAYMELRSLRSDDTAVYYCARTYYDILTGYYYYGMDVWGQGTTVTVSS
VL: EIVLTQSPGTLSLSPGERATLSCRTSQSVDTYLAWYQQKPGQAPRLLIYDASNRATGIPARFSGSGSGTDFTLTISSLEPEDFAVYYCQQRSNWPLTFGGGTKVEIK
B3: c97A3C2H4 (antibody, V domains shown)
VH: EVKLVESGGGLVQPGGSLKLSCAASGFTFSTYTMSWVRQTPEKRLEWVAYISYGGGSTSYPDTVKGRFTISRDNAKNTLYLQMSSLKSEDTAIYYCTRHVTVVENSMDYWGQGTSVTVSS
VL: DILLTQSPDILSVSPGERVSFSCRASQSIGTSIHWYQQRTNGSPRLLIKYVSESFSGTPSRFSGSGSGTAFTLTINSVESEDIADYYCQQTHSWPWTFGGGTKLEIK
notes: also called chimeric antibody c97A3C2H4
B4: c8E7D9C7F5 (antibody, V domains shown)
VH: QVQLQQSGVELARPGASVKLSCKASGYTFTSYGISWVKQRTGQALEWIGEIYPRSGNTYYNEKFKGKATLTADKSSSTAYMELRSLTSEDSAVYFCARSGPITTLVATDYGMDYWGQGTSVTVSS
VL: DIVLTQSPASLAVSLGQRATISCRASKSVSTSSYSYMHWYQQKPGQPPKLLIKFASNLESGVPARFSGSGSGTDFTLNIHPVEEEDAATYYCQHSREFPYTFGGGTKLEIK
notes: also called chimeric antibody c8E7D9C7F5

Tests used:
[1] = molecular target: biotinylated hBLyS-ECD (human) (UniProt Q9Y275); assay: blocking ELISA: biotinylated hBLyS-ECD on coated BAFF R, antibody 0.0064 nM
[2] = molecular target: biotinylated hBLyS-ECD (human) (UniProt Q9Y275); assay: ELISA, biotinylated hBLyS-ECD captured on streptavidin; antibody 13.3 nM
[3] = molecular target: biotinylated hBLyS-ECD (human) (UniProt Q9Y275); assay: blocking ELISA: biotinylated hBLyS-ECD on coated BAFF R, antibody 0.00128 nM
[4] = molecular target: cynomolgus BLyS (full length, arginine to histidine at position 132) on CHO-K1 cells (cynomolgus); assay: flow cytometry, CHO-K1 cynoBLyS cells, antibody 0.534 nM
[5] = molecular target: biotinylated hBLyS-ECD (human) (UniProt Q9Y275); assay: blocking ELISA: biotinylated hBLyS-ECD on coated BAFF R, antibody 0.8 nM
[6] = molecular target: biotinylated hBLyS-ECD (human) (UniProt Q9Y275); assay: ELISA, biotinylated hBLyS-ECD captured on streptavidin; antibody 0.534 nM
[7] = molecular target: biotinylated hBLyS-ECD (human) (UniProt Q9Y275); assay: ELISA, biotinylated hBLyS-ECD captured on streptavidin; antibody 0 nM (blank)
[8] = molecular target: human BLyS (full length, arginine to histidine at position 132) on CHO-K1 cells (human) (UniProt Q9Y275); assay: flow cytometry, CHO-K1 hBLyS cells, antibody 0.534 nM
[9] = molecular target: biotinylated hBLyS-ECD (human) (UniProt Q9Y275); assay: ELISA, biotinylated hBLyS-ECD captured on streptavidin; antibody 0.00427 nM
[10] = molecular target: human BLyS (full length, arginine to histidine at position 132) on CHO-K1 cells (human) (UniProt Q9Y275); assay: flow cytometry, CHO-K1 hBLyS cells, antibody 0 nM
[11] = molecular target: cynomolgus BLyS (full length, arginine to histidine at position 132) on CHO-K1 cells (cynomolgus); assay: flow cytometry, CHO-K1 cynoBLyS cells, antibody 0.107 nM
[12] = molecular target: extracellular domain of human BLyS protein (hBLyS-ECD), His-tagged, Ala134-Leu285 (human) (UniProt Q9Y275); assay: cell-based or functional assay
[13] = molecular target: biotinylated hBLyS-ECD (human) (UniProt Q9Y275); assay: BAFF R-coated ELISA, biotinylated hBLyS-ECD bound in presence of control antibody 4 nM
biotinylated hBLyS-ECD [14] = molecular target: T1, biotinylated hBLyS-ECD (human, UniProt Q9Y275 134-285, biotinylated with Biotin-X-X-NHS (molar ratio 7:1), sites not stated); assay: ELISA: biotinylated hBLyS-ECD captured on streptavidin, antibody titrated, HRP secondary antibody
T1 construct: The hBLyS-ECD of Embodiment 1 after biotinylation (Embodiment 2); also called biotinylated immunogen; BLyS protein; not shown: His tag of the pCPC vector
Protocol: Streptavidin was first diluted to a final concentration of 1.0 μg/mL with PBS, and then 50 μL of diluted streptavidin per well was aliquoted into 96-well ELISA plate, which was subsequently sealed with plastic film and incubated at 4° C. overnight. On the next day the plate was washed four times with the plate washing buffer [PBS buffer containing 0.05% (v/v) Tween20] and added with the blocking solution [PBS buffer containing 0.05% (v/v) Tween20 and 1% (w/w) BSA] and blocked for 2 hours at 37° C. The blocking solution was removed, the biotinylated hBLyS-ECD prepared in Embodiment 2 was diluted with PBS to a final concentration of 50 ng/mL and then aliquoted into the 96-well ELISA plate at 50 μL per well and incubated for 1 hour at 37° C. After rinsing the plate four times with the plate washing buffer [PBS buffer containing 0.05% (v/v) Tween20], 100 μl of the purified lead antibody harvested in Embodiment 1 and 2 was pipetted into each well. After incubation for 1 hour at 37° C., the plate was rinsed four times with the plate washing buffer [PBS buffer containing 0.05% (v/v) Tween20]. HRP-labeled (horseradish peroxidase) secondary antibody (purchased from Sigma) was added in and incubated at 37° C. for 1 hour. […] A₄₅₀ₙₘ values were read via an ELISA plate reader (SpectraMax M5e purchased from Molecular Devices) and the results were shown in FIGS. 5A-5B and Table 10.

biotinylated hBLyS-ECD [15] = molecular target: T2, biotinylated hBLyS-ECD (human, UniProt Q9Y275 134-285, biotinylated with Biotin-X-X-NHS (molar ratio 7:1); sites not stated); assay: BAFF R-coated ELISA, biotinylated hBLyS-ECD bound in presence of antibody 0.032 nM
T2 construct: also called biotinylated immunogen; biotinylated hBLvS-ECD

biotinylated hBLyS-ECD [16] = molecular target: T2, biotinylated hBLyS-ECD; assay: BAFF R-coated ELISA, biotinylated hBLyS-ECD bound in presence of antibody 0.16 nM
biotinylated hBLyS-ECD [17] = molecular target: T2, biotinylated hBLyS-ECD; assay: ELISA on captured biotinylated hBLyS-ECD; antibody 66.7 nM
biotinylated hBLyS-ECD [18] = molecular target: T2, biotinylated hBLyS-ECD; assay: ELISA on captured biotinylated hBLyS-ECD; antibody 13.3 nM
biotinylated hBLyS-ECD [19] = molecular target: T2, biotinylated hBLyS-ECD; assay: ELISA on captured biotinylated hBLyS-ECD; antibody 0.107 nM
biotinylated hBLyS-ECD [20] = molecular target: T2, biotinylated hBLyS-ECD; assay: BAFF R-coated ELISA, biotinylated hBLyS-ECD bound in presence of antibody 4 nM
biotinylated hBLyS-ECD [21] = molecular target: T2, biotinylated hBLyS-ECD; assay: ELISA on captured biotinylated hBLyS-ECD; antibody 0.534 nM

human BLyS (full length, arginine to histidine at position 132) on CHO-K1 cells (human), sequence (Q9Y275 whole entry R130H, the tested form may be a part): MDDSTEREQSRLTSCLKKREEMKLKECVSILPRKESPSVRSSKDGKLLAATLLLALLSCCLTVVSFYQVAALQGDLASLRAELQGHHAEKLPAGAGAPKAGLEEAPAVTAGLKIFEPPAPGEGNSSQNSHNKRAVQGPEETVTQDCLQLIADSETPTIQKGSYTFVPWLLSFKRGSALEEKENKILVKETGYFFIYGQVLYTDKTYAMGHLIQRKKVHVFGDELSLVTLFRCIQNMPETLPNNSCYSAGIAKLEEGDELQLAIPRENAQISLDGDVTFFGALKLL
cynomolgus BLyS (full length, arginine to histidine at position 132) on CHO-K1 cells (cynomolgus), sequence (Q9Y275 other isoform, or with tags, fused parts or gaps limits assumed): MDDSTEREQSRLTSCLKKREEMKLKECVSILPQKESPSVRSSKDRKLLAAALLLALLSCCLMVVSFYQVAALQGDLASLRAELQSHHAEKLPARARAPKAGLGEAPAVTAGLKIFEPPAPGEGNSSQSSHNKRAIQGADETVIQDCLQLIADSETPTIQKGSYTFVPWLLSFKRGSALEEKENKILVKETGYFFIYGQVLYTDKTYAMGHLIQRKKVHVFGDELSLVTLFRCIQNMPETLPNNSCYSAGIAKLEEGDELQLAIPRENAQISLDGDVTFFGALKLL
T2 sequence (Q9Y275 134-285): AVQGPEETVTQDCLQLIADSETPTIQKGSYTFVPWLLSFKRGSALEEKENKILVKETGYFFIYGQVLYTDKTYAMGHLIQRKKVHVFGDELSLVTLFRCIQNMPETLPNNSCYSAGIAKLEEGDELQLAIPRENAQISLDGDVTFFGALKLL
biotinylated hBLyS-ECD (human), sequence (Q9Y275 134-285): as above
T1 sequence (Q9Y275 134-285): as above
extracellular domain of human BLyS protein (hBLyS-ECD), His-tagged, Ala134-Leu285 (human), sequence (Q9Y275 134-285): as above

Row | Molecule | OD450 nm [1] | OD450 nm [2] | OD450 nm [3] | MFI [4] | OD450 nm [5] | OD450 nm [6] | OD450 nm [7] | MFI [8] | OD450 nm [9] | MFI [10] | MFI [11] | EC50 (read off the curve) (biotinylated hBLyS-ECD [14]) | OD450 nm (biotinylated hBLyS-ECD [15]) | OD450 nm (biotinylated hBLyS-ECD [16]) | OD450 nm (biotinylated hBLyS-ECD [17]) | OD450 nm (biotinylated hBLyS-ECD [18]) | OD450 nm (biotinylated hBLyS-ECD [19]) | OD450 nm (biotinylated hBLyS-ECD [20]) | OD450 nm (biotinylated hBLyS-ECD [21]) | further results
1 | mIgG Control (antibody) | 1.4 OD450 nm | 0.0627 | 1.42 OD450 nm | 20 MFI | 1.4 OD450 nm | 0.0594 | 0.0574 | 30.7 MFI | 0.0695 | 30.3 MFI | 19.7 MFI | – | – | – | – | – | – | – | – | –
2 | hIgG Control (antibody) | 1.14 OD450 nm | 0.102 | 1.13 OD450 nm | 22.6 MFI | 1.14 OD450 nm | 0.0916 | 0.103 | 33.4 MFI | 0.108 | 27.2 MFI | 22.8 MFI | – | – | – | – | – | – | – | – | Proportion of B lymphocytes in splenocytes (%), in vivo in mice [12]: 39.4%; OD450 nm [13]: 1.87 OD450 nm
3 | B1 | – | – | – | – | – | – | – | – | – | – | – | ~0.1 nM | – | – | – | – | – | – | – | –
4 | B2 | – | – | – | – | – | – | – | – | – | – | – | ~0.2 nM | – | – | – | – | – | – | – | –
5 | B3 | – | – | – | – | – | – | – | – | – | – | – | – | 1.84 OD450 nm | 1.79 OD450 nm | 3.3 OD450 nm | 3.33 OD450 nm | 2.35 OD450 nm | 1.07 OD450 nm | 3.26 OD450 nm | –
6 | B4 | – | – | – | – | – | – | – | – | – | – | – | – | 1.97 OD450 nm | 1.85 OD450 nm | 3.31 OD450 nm | 3.32 OD450 nm | 1.7 OD450 nm | 1.04 OD450 nm | 3.07 OD450 nm | –
